In general, Kd refers to the free concentration of one partner at which half of the binding sites on the other are occupied at equilibrium, for simple one-to-one binding. High values mean weaker binding, low ones tighter binding.

Here are results for 1 molecule from publication doi:10.1101/2021.08.23.457303 (bioRxiv, 2021).

Test [1] has as its target T1, His-tagged human Bin1 isoform 8 K436X (CNM-associated, truncated SH3 domain) (human, UniProt O00499-8 1-435).
T1 sequence: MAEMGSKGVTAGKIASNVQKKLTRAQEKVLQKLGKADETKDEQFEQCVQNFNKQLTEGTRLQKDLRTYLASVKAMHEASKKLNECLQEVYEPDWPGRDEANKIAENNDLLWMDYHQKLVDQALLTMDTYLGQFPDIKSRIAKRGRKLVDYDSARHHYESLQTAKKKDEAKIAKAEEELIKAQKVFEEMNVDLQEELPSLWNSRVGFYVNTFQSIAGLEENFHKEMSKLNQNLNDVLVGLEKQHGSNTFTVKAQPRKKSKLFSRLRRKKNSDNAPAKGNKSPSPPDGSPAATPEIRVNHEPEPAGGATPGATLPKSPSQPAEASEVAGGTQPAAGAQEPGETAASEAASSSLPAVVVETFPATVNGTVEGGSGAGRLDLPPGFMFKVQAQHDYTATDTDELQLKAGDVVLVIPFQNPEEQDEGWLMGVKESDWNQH
The experiment in a line: pull-down.

Test [2] addresses T2, His-tagged human Bin1 isoform 8, wild type, full length (human, UniProt O00499-8 1-454).
T2 sequence: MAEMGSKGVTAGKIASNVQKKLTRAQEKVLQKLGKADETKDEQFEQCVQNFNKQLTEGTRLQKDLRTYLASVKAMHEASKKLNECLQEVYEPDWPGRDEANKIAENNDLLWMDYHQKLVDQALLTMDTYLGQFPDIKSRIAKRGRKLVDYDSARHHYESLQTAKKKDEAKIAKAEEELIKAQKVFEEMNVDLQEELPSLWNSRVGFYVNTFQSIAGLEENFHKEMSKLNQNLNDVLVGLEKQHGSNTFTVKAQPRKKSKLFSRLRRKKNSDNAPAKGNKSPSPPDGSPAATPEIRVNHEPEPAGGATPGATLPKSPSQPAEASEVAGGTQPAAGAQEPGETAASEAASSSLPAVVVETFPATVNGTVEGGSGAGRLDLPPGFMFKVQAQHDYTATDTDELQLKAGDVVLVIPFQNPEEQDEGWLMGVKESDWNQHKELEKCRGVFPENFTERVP
The test is described as follows: pull-down.

B1: GST-tagged PRD domain of Dyn2 (domain or fragment)
chain: PVPPPVDDTWLQSASSHSPTPQRRPVSSIHPPGRPPAVRGPTPGPPLIPVPVGAAASFSAPPIPSRPGPQSVFANSDLFPAPPQIPSRPVRIPPGIPPGVPSRRPPAAPSRPTIIRPAEPSLLD
On to B1, for which the Kd in test [1] is 267 nM; in test [2], 180 nM.
